From patent publication US20230383000A1

Target: human IL-1R3 on cells (SK-MEL-30, A549, HEK-293 and other human cell lines) (human) (UniProt Q9NPH3)
Assay: flow cytometry on SK-MEL-30 cells (high IL-1R3 expression), 1:2 dilution series from 20 µg/ml

Chain of human IL-1R3 on cells (SK-MEL-30, A549, HEK-293 and other human cell lines) (human) (Q9NPH3 21-570): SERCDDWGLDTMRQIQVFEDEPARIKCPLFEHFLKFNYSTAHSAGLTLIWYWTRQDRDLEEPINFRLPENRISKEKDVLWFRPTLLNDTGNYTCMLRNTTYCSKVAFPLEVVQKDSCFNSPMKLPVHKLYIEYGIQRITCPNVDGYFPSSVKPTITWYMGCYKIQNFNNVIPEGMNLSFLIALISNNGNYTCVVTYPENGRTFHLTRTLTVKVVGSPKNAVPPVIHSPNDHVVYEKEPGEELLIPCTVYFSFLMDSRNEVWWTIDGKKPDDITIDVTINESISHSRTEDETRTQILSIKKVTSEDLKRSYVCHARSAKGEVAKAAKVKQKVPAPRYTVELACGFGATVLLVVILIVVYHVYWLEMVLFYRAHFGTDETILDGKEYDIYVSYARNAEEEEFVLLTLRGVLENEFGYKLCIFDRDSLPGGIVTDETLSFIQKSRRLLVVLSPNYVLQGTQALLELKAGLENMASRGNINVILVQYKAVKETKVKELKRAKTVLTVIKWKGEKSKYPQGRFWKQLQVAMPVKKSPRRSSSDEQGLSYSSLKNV

B1: MAB-16-0030 (humanized anti-IL-1R3 IgG1-LALA antibody) (antibody, from another filing, V domains shown)
VH: EVQLEESGGRLVQPGTSLRLSCAVSGFSLSSYDMSWVRQAPGKGLEWVSTIYIGGTTAYASWPKGRFTISKTNSKNTLYLQMNSLRAEDTAVYFCARLQGANYYNSLALWGQGTLVTVSS
VL: DVQMTQSPSSLSASVGDRVTITCQASQSIYSFLSWYQQKPGQAPKLLIYAASDLESGVPSRFSGSGSGTDFTLTISSLQPEDFATYYCQCNYIIDYGAFGQGTKVVIKR
Question: With B1 as the binder, how does the EC50 read?
Answer: Its EC50 is 0.307 µg/mL.
